The source of these data is patent US20090130134A1, “T CD4+ Epitopes of Type I and II Latency Antigens of the Epstein-Barr Virus, Which Can Be Recognized by the majority of individuals in the caucasian populations and applications thereof” (priority 2005, published 2009).

Assay [1] deals with HLA-DR11 (human). Kind of assay: competition ELISA, tracer HA 306-318. (In general: In an ELISA, binding on a coated surface is turned into a signal by an enzyme label.)
The target in assay [2] is HLA-DR1 (human). The experiment in a line: competition ELISA, tracer HA 306-318.
The target of assay [3] is HLA-DR7 (human). The experiment in a line: competition ELISA, tracer YKL.
The target in assay [4] is HLA-DR15 (human). The experiment in a line: competition ELISA, tracer A3 152-166.
Assay [5] addresses T1, HLA-DP4 (DPB1*0402) (human), P20036.
T1 chain 1: not shown
T1 chain 2: not shown
The experiment in a line: competition ELISA, tracer Oxy 271-287.

For assay [6], the target named is HLA-DR4 (human). The experiment in a line: competition ELISA, tracer HA 306-318.
Assay [7] concerns the target HLA-DRB5 (human). Kind of assay: competition ELISA, tracer not stated.
In assay [8] the target is T2, HLA-DP4 (DPB1*0401) (human), P20036.
T2 chain 1: not shown
T2 chain 2: not shown
The experiment in a line: competition ELISA, tracer Oxy 271-287.

B1: D31D (peptide)
peptide: DPHLPTLLLGTSGSGGDDDDPHGPVQLSYYD
modifications: not checked
The IC50 is the point on the concentration scale where inhibition reaches its midpoint. On to B1, for which the IC50 in assay [1] was found to be 25000 nM; in assay [2], 17300 nM; in assay [3], 27500 nM; in assay [4], 251 nM; in assay [5], 28300 nM.

B2: A15V (peptide)
peptide: ASSYAAAQRKLLTPV
modifications: not checked
Consider B2, for which the IC50 in assay [6] came out at 35500 nM; in assay [1] it was 4 nM; in assay [2] it was 1200 nM; in assay [3], 1730 nM; in assay [7], 463 nM; in assay [4] it was 26500 nM.

B3: A16L (peptide)
peptide: ALWNLHGQALFLGIVL
modifications: not checked
As for B3, the IC50 in assay [1] stood at 11000 nM; in assay [2], 79 nM; in assay [3], 122 nM; in assay [7] it was 2680 nM; in assay [4] it was 48 nM; in assay [5], 725 nM. In addition, the IC50 in assay [8] worked out at 1180 nM.
